Source: paper PMC12445682 (Nucleic Acids Research, 2025)

B1: P2–OLD H332A (ATPase domain mutant), His-MBP-bdSUMO fusion (enzyme, phage P2, UniProt P13520 1-586, looked up)
chain: MTVRLASVSISNFRSCKSTSAILRPFTALVGYNNAGKSNIILAIKWLLDGSLISESDVYDPTHPVSVEGVIQGITDDTLSLLTEENQQKIAPFIIDGTLTFARRQEFNKETGKAKKSLDVYDGTTWKKNPGGIDGAISNIFPEPIHIPAMSDAVEDSTKCKNTTTIGKILSAIVSEIKQEHEEKFSKNISEIGKYLSHNGENRLESLNKIDSGVNKKVNQFFPDVSVKLHFPTPTLDEIFKSGTLKVFESREDEPVMRDISRFGHGTQRSIQMALIQYLAEIKKENSESKKSNTLIFIDEPELYLHPSAINSVRESLVTLSESGYQVIISTASASMLSAKHAANAIQVCKDSNGTIARKTISEKIEELYKSSSPQLHSAFTLSNSSYLLFSEEVLLVEGKTETNVLYALYKKINGHELNPSKICIVAVDGKGSLFKMSQIINAIGIKTRILADCDFLSNILLTEHKDLLSTECDNLLTALIESINSGELSLNTKVTTFESFKSISSKDFIKICNHEKTQKHIHEIHQKLKDNGIYIWKSGDIEAVYGFGKKQTEWDSLLDCLCDESKDVRAVIKKYDEMEDFIKWI
B2: P2–OLD H332A/E402A (ATPase and Toprim double mutant), His-MBP-bdSUMO fusion (enzyme, phage P2, UniProt P13520 1-586, looked up)
chain: MTVRLASVSISNFRSCKSTSAILRPFTALVGYNNAGKSNIILAIKWLLDGSLISESDVYDPTHPVSVEGVIQGITDDTLSLLTEENQQKIAPFIIDGTLTFARRQEFNKETGKAKKSLDVYDGTTWKKNPGGIDGAISNIFPEPIHIPAMSDAVEDSTKCKNTTTIGKILSAIVSEIKQEHEEKFSKNISEIGKYLSHNGENRLESLNKIDSGVNKKVNQFFPDVSVKLHFPTPTLDEIFKSGTLKVFESREDEPVMRDISRFGHGTQRSIQMALIQYLAEIKKENSESKKSNTLIFIDEPELYLHPSAINSVRESLVTLSESGYQVIISTASASMLSAKHAANAIQVCKDSNGTIARKTISEKIEELYKSSSPQLHSAFTLSNSSYLLFSEEVLLVEGKTATNVLYALYKKINGHELNPSKICIVAVDGKGSLFKMSQIINAIGIKTRILADCDFLSNILLTEHKDLLSTECDNLLTALIESINSGELSLNTKVTTFESFKSISSKDFIKICNHEKTQKHIHEIHQKLKDNGIYIWKSGDIEAVYGFGKKQTEWDSLLDCLCDESKDVRAVIKKYDEMEDFIKWI
B3: P2–OLD E402A (Toprim domain mutant), His-MBP-bdSUMO fusion (enzyme, phage P2, UniProt P13520 1-586, looked up)
chain: MTVRLASVSISNFRSCKSTSAILRPFTALVGYNNAGKSNIILAIKWLLDGSLISESDVYDPTHPVSVEGVIQGITDDTLSLLTEENQQKIAPFIIDGTLTFARRQEFNKETGKAKKSLDVYDGTTWKKNPGGIDGAISNIFPEPIHIPAMSDAVEDSTKCKNTTTIGKILSAIVSEIKQEHEEKFSKNISEIGKYLSHNGENRLESLNKIDSGVNKKVNQFFPDVSVKLHFPTPTLDEIFKSGTLKVFESREDEPVMRDISRFGHGTQRSIQMALIQYLAEIKKENSESKKSNTLIFIDEPELYLHPSAINSVRESLVTLSESGYQVIISTHSASMLSAKHAANAIQVCKDSNGTIARKTISEKIEELYKSSSPQLHSAFTLSNSSYLLFSEEVLLVEGKTATNVLYALYKKINGHELNPSKICIVAVDGKGSLFKMSQIINAIGIKTRILADCDFLSNILLTEHKDLLSTECDNLLTALIESINSGELSLNTKVTTFESFKSISSKDFIKICNHEKTQKHIHEIHQKLKDNGIYIWKSGDIEAVYGFGKKQTEWDSLLDCLCDESKDVRAVIKKYDEMEDFIKWI

Biological target: the molecule itself
Assay: SEC

Binding result, binds:
B1
B2
B3
